Reference: PMC10793500, “Structural insights into RNA cleavage by a novel family of bacterial RNases” (Research Square, 2023)

Target: the molecule itself
Test: crystal structure; apo YicC; hanging drop vapor diffusion, 0.1M Tris pH 8.5, 0.3M lithium sulfate, 25% PEG 3350; six copies in the asymmetric unit

B1: YicC (E. coli endoribonuclease, proposed name RNase CS) (enzyme, UniProt P23839 1-287, looked up)
chain: MIRSMTAYARREIKGEWGSATWEMRSVNQRYLETYFRLPEQFRSLEPVVRERIRSRLTRGKVECTLRYEPDVSAQGELILNEKLAKQLVTAANWVKMQSDEGEINPVDILRWPGVMAAQEQDLDAIAAEILAALDGTLDDFIVARETEGQALKALIEQRLEGVTAEVVKVRSHMPEILQWQRERLVAKLEDAQVQLENNRLEQELVLLAQRIDVAEELDRLEAHVKETYNILKKKEAVGRRLDFMMQEFNRESNTLASKSINAEVTNSAIELKVLIEQMREQIQNIE
notes: YicC of E. coli, the prototypical member of the YicC family of endoribonucleases; Expressed from a modified pET47b vector; also called apo YicC; source: E. coli (culture of EG1261, IPTG induced), purified (Ni-NTA, SUMO-protease cleavage, Superdex 200; for cryo-EM also Hitrap Q)
stoichiometry N: 6
